Data taken from US20050049402A1 (Amgen, published 2005).

What was measured:
[1] = molecular target: T1, human TNFα (Tumor Necrosis Factor-alpha), soluble (human, UniProt P01375 77-233); experiment: KinExA, TNFα counted as three monomers; KinExA, three monomers (17.5 kDa); upper bound of the Kd fit
T1 construct: Recombinant (R&D 210-TA/CF) in screens; biotinylated in the limited antigen assay; also called hTNFα; H-TNFα
Experimental: (§1) The kinetic measurements of the anti-TNFα antibodies were evaluated using KinExA® and BIACORE® technologies. The KinExA® method involves solution-based determination of formal affinity measurements at equilibrium. To measure the binding kinetics of each human anti-TNFα antibody, two experiments in replicates of three were performed. In both experiments a known concentration of antigen was titrated and a different antibody concentration was added to each antigen titration and allowed to reach binding equilibrium. […] The results were analyzed by dual curve analysis. […] In addition, to negate the possibility of avidity effects, Fab fragments were generated by papain cleavage and the kinetic analysis was repeated (see Table 24).

[2] = molecular target: T1, human TNFα (Tumor Necrosis …); experiment: KinExA, TNFα counted as one trimer; KinExA in solution; TNFα site concentration as one trimer (52.5 kDa)
Experimental: as §1

[3] = molecular target: T1, human TNFα (Tumor Necrosis …); experiment: KinExA, TNFα counted as one trimer; KinExA, one trimer (52.5 kDa); upper bound of the Kd fit
Experimental: as §1

[4] = molecular target: T1, human TNFα (Tumor Necrosis …); experiment: KinExA, TNFα counted as one trimer; KinExA, one trimer (52.5 kDa); lower bound of the Kd fit
Experimental: as §1

[5] = molecular target: T1, human TNFα (Tumor Necrosis …); experiment: KinExA, TNFα counted as three monomers
Experimental: as §1

[6] = molecular target: T1, human TNFα (Tumor Necrosis …); experiment: KinExA, TNFα counted as three monomers; KinExA in solution; TNFα site concentration as three monomers (17.5 kDa)
Experimental: as §1

[7] = molecular target: T1, human TNFα (Tumor Necrosis …); experiment: cell-based or functional assay
mouse TNFα = molecular target: T2, mouse TNFα (mouse, UniProt P06804 80-235); experiment: binding to chimeric TNF proteins
T2 construct: also called M TNFα; murine TNF
T2 sequence: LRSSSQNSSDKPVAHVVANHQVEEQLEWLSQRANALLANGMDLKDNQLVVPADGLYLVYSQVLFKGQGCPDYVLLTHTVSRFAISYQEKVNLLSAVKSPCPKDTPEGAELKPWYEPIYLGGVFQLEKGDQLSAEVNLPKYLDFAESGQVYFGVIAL

[8] = molecular target: T1, human TNFα (Tumor Necrosis …); experiment: cell-based or functional assay; remark: listed apart in the source
[9] = molecular target: T1, human TNFα (Tumor Necrosis …); experiment: KinExA, TNFα counted as one trimer
Experimental: as §1

[10] = molecular target: T3, monkey (cynomolgous macaque) GST-TNFα (cynomolgous macaque, UniProt P79337 77-233); experiment: ELISA, plate coated with 2 µg/ml monkey (cynomolgus macaque) GST-TNFα, HRP goat anti-human IgG detection
T3 construct: also called E. coli expressed soluble cynomolgous macaque monkey TNF; monkey TNFα; not shown: GST fusion partner
Experimental: (§2) Anti-TNFα antibodies were also tested for their ability to bind to soluble recombinant TNFα. Human and monkey (cynomolgous macaque) TNFα were expressed in E. coli as fusion proteins with GST. Binding was assessed by ELISA. […] Bound antibody was detected using an HRP-conjugated goat anti-human IgG antibody.

[11] = molecular target: T4, H/M HincII chimeric TNFα (human 1-91, murine 92-157) (human; mouse); experiment: ELISA on chimeric/mutant TNFα
T4 construct: Murine range printed 92-157 (human-aligned); also called Hu/M Hin C l1
T4 chain: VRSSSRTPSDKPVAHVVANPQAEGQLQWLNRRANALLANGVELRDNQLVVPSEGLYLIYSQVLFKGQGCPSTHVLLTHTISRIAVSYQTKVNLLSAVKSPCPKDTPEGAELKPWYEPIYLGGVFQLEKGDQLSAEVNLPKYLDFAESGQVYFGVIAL
Source text: (§3) In order to define the binding site for different antibodies, a number of residues of hTNFα were mutated using site directed mutagenesis. A panel of antibodies was screened for binding by an ELISA assay. […] Histidine at position 73 was deleted, an example is illustrated in Table 19.

[12] = molecular target: T5, H/M PvuII chimeric TNFα (human 1-125, murine 126-157) (human; mouse); experiment: ELISA on chimeric/mutant TNFα
T5 construct: also called Hu/M PVu11
T5 chain: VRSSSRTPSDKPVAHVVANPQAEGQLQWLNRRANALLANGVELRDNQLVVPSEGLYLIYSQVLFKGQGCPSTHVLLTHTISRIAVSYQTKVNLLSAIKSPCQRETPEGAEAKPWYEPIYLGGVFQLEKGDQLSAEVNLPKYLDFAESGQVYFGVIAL
Source text: as §3

human TNFα R31Q mutant = human TNFα R31Q mutant (human, UniProt P01375 77-233); experiment: ELISA on chimeric/mutant TNFα
Source text: as §3

[13] = molecular target: T6, H/M BglI chimeric TNFα (human 1-36, murine 37-157) (human; mouse, UniProt P06804 81-235); experiment: ELISA on chimeric/mutant TNFα
T6 construct: Murine range is printed as 37-157 in human-aligned numbering; also called H/MBgl1; Hu/MBgl1
T6 chain: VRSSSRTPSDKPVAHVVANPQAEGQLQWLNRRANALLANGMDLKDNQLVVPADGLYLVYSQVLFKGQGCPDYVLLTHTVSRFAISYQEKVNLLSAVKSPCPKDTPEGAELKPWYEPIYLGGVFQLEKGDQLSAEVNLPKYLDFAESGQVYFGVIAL
Source text: as §3

human TNFα R131Q mutant = human TNFα R131Q mutant (human, UniProt P01375 77-233); experiment: ELISA on chimeric/mutant TNFα
Source text: as §3

[14] = molecular target: T1, human TNFα (Tumor Necrosis …); experiment: BIACORE, average
human GST-TNFα = molecular target: T7, human GST-TNFα (human, UniProt P01375 77-233); experiment: ELISA, plate coated with 0.5 µg/ml human GST-TNFα, HRP goat anti-human IgG detection
T7 construct: also called E. coli expressed soluble human TNF; not shown: GST fusion partner
Experimental: as §2

[15] = molecular target: T8, cynomolgus macaque TNFα (KinExA) (cynomolgus macaque, UniProt P79337 77-233, limits assumed); experiment: KinExA, TNFα as a monomer
T8 construct: also called monkey TNFα
Experimental: as §1
(§4) The KinExA method was also used to measure the Kd describing this binding affinity.

[16] = molecular target: transmembrane mutant TNFα expressed on the surface of CHO cells (UniProt P01375 1-233); experiment: cell-based or functional assay
[17] = molecular target: T8, cynomolgus macaque TNFα (KinExA); experiment: KinExA
Experimental: as §1, §4

[18] = molecular target: T1, human TNFα (Tumor Necrosis …); experiment: cell-based or functional assay; remark: listed apart in the source
[19] = molecular target: T1, human TNFα (Tumor Necrosis …); experiment: BIACORE, average N = 5

Sequence of transmembrane mutant TNFα expressed on the surface of CHO cells (P01375 whole entry, change not shown, form in doubt): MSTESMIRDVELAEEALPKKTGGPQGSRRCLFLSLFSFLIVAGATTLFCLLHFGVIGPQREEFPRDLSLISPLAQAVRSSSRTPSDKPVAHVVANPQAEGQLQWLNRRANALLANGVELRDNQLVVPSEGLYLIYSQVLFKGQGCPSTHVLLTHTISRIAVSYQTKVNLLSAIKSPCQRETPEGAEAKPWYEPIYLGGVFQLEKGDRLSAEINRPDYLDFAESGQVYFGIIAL
Sequence of human TNFα R31Q mutant (P01375 77-233 R107Q): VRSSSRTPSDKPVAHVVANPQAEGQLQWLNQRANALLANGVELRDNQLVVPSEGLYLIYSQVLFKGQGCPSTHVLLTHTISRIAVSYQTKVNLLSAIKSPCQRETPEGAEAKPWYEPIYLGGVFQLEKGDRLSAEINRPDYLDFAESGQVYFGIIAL

B1: 3.2 (hybridoma, IgG2) (antibody, V domains shown)
VH: EVQLVQSGAEVKKPGESLKISCKTSEYSFTSYWIGWVRQMPGKGLEWMGIIYLGDSDTRYSPSFQGQVTISADKSISTAYLQWSSLKASDTAMYYCARSNWGLDYWGQGTLVTVSS
VL: QSVLTQPPSVSGAPGQRVTISCTGSSSNIGAGYDVHWYQQFPGTAPKLLIQGNSNRPSGVPDRFSGSKSGTSASLAITGLQAEDEADYYCQSYDSSLSGSVFGGGTKLTVL
notes: Hybridoma derived human IgG2, lambda light chain (V1-13/JL3); also called 3.2 Ab; 3.2.1
[1]
  Kd (M) High: 2.3e-11 M
[2]
  Kd: 4.77 pM
[3]
  Kd (M) High: 7.6e-12 M
[4]
  Kd (M) Low: 2.43e-12 M
[5]
  Kd (M) Low: 7.3e-12 M
[6]
  Kd: 14.3 pM

B2: 299v2 (antibody, human IgG1, V domains shown)
VH: QVQLVESGGGVVQPGRSLRLSCAASGFTFSSYDMHWVRQAPGKGLEWVAVIWSDGSIKYYADSVKGRFTISRDNSKNTLYLQMNSLRAEDTAVYYCAREVESAMGGFYYNGMDVWGQGTTVTVSS
VL: DIQMTQSPSSLSASVGDRVTITCRASQGIRIDLGWYQQKPGKAPKRLIYAASTLQSGVPSRFSGSGSGTEFIFTISSLQPEDFASYYCLQHKSYPLTFGGGTKVEIK
notes: XENOMAX derived, recombinant human IgG1 kappa; also called 299v2Ab; SC299V2
[7]
  IC50 1 hr Pre-incubation, TNF induced apoptosis in MCF-7 cells: 18.6 pM
  IC50 18 hr Pre-incubation, TNF induced apoptosis in MCF-7 cells: 1.6 pM
Mouse TNFα
  binding result: no binding
[8]
  Whole Blood IC50, TNFα-induced IL-8 production: 131 pM
[9]
  Kd: 1.07 pM
[10]
  EC50 (read off the curve): ~4 ng/mL
[11]
  binding result: binds
[12]
  binding result: binds
Human TNFα R31Q mutant
  binding result: no binding
[13]
  binding result: binds
Human TNFα R131Q mutant
  binding result: binds
[14]
  Kd: 5.7 pM
[5]
  Kd: 3.2 pM
Human GST-TNFα
  EC50 (read off the curve): ~4 ng/mL
[15]
  Kd: 626 pM
[16]
  ADCC (%): 16%
  CDC (%): 9%
[17]
  fold lower affinity than for human TNFα: ~200 fold
[18]
  In vivo Potency (IC50), ALT, hTNFα/D-GalN hepatic injury in mice: 50000 pM
  In vivo Potency (IC50), human TNFα-induced IL-6 in mice: 43000 pM
[19]
  koff: 1.03e-05 s⁻¹
  kon: 2.16e+06 M⁻¹ s⁻¹
